Test [1] concerns the target T1, human VTCN1 expressed on cells (293-VTCN1 cells; SKBR3, MX-1 and ZR-75-1 cells that express it naturally) (human, UniProt Q7Z7D3 25-282).
T1 construct: The cDNA was bought from Origene
T1 sequence: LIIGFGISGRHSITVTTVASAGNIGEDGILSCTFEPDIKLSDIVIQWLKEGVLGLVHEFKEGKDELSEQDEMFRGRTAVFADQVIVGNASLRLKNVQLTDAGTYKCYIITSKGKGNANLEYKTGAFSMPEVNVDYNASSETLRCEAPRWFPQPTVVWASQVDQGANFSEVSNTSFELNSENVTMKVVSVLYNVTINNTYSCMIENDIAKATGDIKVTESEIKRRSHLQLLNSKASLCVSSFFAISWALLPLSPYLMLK
Kind of test: flow cytometry and immunofluorescence on cells. For orientation: In flow cytometry, cells or beads pass a laser one at a time.

Test [2] deals with T2, VTCN1 IgV domain only construct expressed on 293 cells (human, UniProt Q7Z7D3 29-149, limits assumed).
T2 construct: The construct lacks the IgC domain
T2 sequence: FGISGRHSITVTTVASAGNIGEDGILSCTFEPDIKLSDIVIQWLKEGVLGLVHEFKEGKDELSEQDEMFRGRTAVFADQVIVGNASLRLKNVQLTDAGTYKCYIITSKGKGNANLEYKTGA
Description: flow cytometry on 293-VTCN1-IgV domain cells.

The target in test [3] is T3, VTCN1 IgC domain only construct expressed on 293 cells (human, UniProt Q7Z7D3 150-259, limits assumed).
T3 construct: The construct lacks the IgV domain
T3 sequence: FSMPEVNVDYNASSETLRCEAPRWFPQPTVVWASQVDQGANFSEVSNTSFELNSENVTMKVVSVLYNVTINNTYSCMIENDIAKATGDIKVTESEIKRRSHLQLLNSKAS
Kind of test: flow cytometry on 293-VTCN1-IgC domain cells.

Test [4] deals with T4, mouse VTCN1 expressed on 293 cells (mouse, UniProt Q7TSP5 25-257).
T4 construct: whole, on cells
T4 sequence (looked up): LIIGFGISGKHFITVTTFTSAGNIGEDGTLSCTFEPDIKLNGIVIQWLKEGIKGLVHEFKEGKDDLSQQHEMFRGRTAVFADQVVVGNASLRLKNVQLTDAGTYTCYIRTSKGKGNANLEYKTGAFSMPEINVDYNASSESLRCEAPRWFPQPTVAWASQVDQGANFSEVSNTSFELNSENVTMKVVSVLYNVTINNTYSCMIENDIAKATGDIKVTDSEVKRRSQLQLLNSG
Kind of test: flow cytometry on 293-VTCN1 (mouse) cells.

Test [5] addresses T5, recombinant human VTCN1-his protein (human, UniProt Q7Z7D3 25-259, limits assumed).
T5 construct: also called human VTCN1 protein; recombinant VTCN1
T5 sequence: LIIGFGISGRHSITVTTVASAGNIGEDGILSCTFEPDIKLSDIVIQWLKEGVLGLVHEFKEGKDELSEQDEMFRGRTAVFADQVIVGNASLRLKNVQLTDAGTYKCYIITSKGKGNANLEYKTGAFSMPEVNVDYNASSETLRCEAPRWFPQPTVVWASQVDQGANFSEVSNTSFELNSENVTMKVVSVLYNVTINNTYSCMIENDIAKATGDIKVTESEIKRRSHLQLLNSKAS
Description: BLI (OCTET), human VTCN1 protein.

Test [6] has as its target T6, cynomolgus monkey VTCN1 expressed on 293 cells (cynomolgus monkey, UniProt A0A2K5U6P5 25-282).
T6 construct: whole, on cells
T6 sequence: T1 sequence with L53I, F242L, S252A
Description: flow cytometry of serially diluted antibody on 293-cynoVTCN1 cells, dye-labelled secondary antibody, MFI.

The target of test [7] is T1, human VTCN1 expressed on cells …. Kind of test: flow cytometry of serially diluted antibody on SKBR3 cells (natural VTCN1), dye-labelled secondary antibody, MFI.
In test [8] the target is T4, mouse VTCN1 expressed on 293 cells. Kind of test: flow cytometry of serially diluted antibody on 293-mouseVTCN1 cells, dye-labelled secondary antibody, MFI.
The target of test [9] is T6, cynomolgus monkey VTCN1 expressed on …. Description: flow cytometry, antibody titration on 293-cynoVTCN1 cells.
Test [10] addresses T7, cynomolgus monkey VTCN1 protein (cynomolgus monkey, UniProt A0A2K5U6P5 25-259).
T7 construct: The construct and its tag are not described; also called cyno VTCN1
T7 sequence: T5 sequence with L53I
Description: BLI (OCTET), cynomolgus monkey VTCN1 protein.

Test [11] deals with T1, human VTCN1 expressed on cells …. Kind of test: flow cytometry, antibody titration on SKBR3 cells (endogenous VTCN1).
Test [12] shares this target. Kind of test: flow cytometry, antibody titration on 293-huVTCN1 cells.
For test [13], the target named is T4, mouse VTCN1 expressed on 293 cells. Kind of test: flow cytometry, antibody titration on 293-muVTCN1 cells.
Test [14] concerns the target T8, mouse VTCN1 protein (mouse, UniProt Q7TSP5 25-257, limits assumed).
T8 construct: The construct and its tag are not described
T8 sequence (looked up): T4 sequence (looked up)
Kind of test: BLI (OCTET), mouse VTCN1 protein.

Test [15] has as its target T5, recombinant human VTCN1-his protein. Description: BLI (OCTET), human VTCN1 protein. This is another data set of the same source.

Numbering of substitutions follows the chain as printed. Where two headings read alike, the source gives them in different places.

B1: 7C8 (antibody, V domains shown)
VH: QVQLQESGPGLVKPSETLSLTCAVSGYSISSGYYWGWIRQPPGKGLEWIGSIYHSGTTYYNPSLKSRVTISVDTSKNQFSLKLNSVTAADTAVYYCATYSSGWYFYFDYWGQGTLVTVSS
VL: DIQLTQSPSFLSASVGDRVTITCRASQGISSYLAWYQQKPGKAPKLLIYVASTLQSGVPSRFSGSGSGTEFTLTISSLQPEDFATYYCQQLNSYPITFGQGTRLEIK
notes: Fully human antibody; also called VTCN1 antibody 7C8
Consider B1, for which the binding result in test [1] is listed as “binds”; in test [2], “no binding”; in test [3], “no binding”; in [4], “binds”.

B2: hu6D9_57A5 (antibody, V domains shown)
VH: QVQLVESGGGVVQPGRSLRLSCAVSGFSLTSYGVQWVRQAPGKGLEWLAVIWSSGSTDYNAAFLSRLTISKDNSKNTVYFQMNSLRAEDTAVYYCARDVTTIVEGFAHWGQGTLVTVSS
VL: DIQMTQSPSSLSASVGDRVTITCKASEKVGTYVSWYQQKPGKAPKLLIYGASNRYTGVPSRFSGSGSGTDFTLTISSLQPEDFATYYCGQTYSYPFTFGQGTKLEIK
notes: Humanized 6D9
On to B2, for which, in test [5], the Kd stood at 36 nM. The entries for the “EC50 (read off the curve)” value in [6] and in [7] were around 2 nM and around 6 nM, respectively. The binding result in [8] was “binds”.

B3: 4C7_63A1 (antibody, V domains shown)
VH: QVQLQESGPGLVKPSGTLSLTCAVSGGSISSSNWWSWVRQPPGKGLEAIGEIYHSGNTNYNPSLKSRVTISVDKSKNQFSLKLSSVTAADTAIYYCARDGYSSGWYWGYFDYWGQGTLVTVSS
VL: EIVMTQSPATLSVSPGERATLSCRASQSVNSNLAWYQQKPGQAPWLLIYGASTRATGIPARFSGSGSGTEFTLTISSLQSEDFAVYYCQQYNHWPYTFGQGTKLEIK
notes: Fully human antibody
For B3, the EC50 in [9] was 1.7 nM; in test [11], 4.4 nM; in [12], 2.1 nM; in test [13], 3.5 nM. For the same molecule, the Kd in test [10] is 47 nM; in test [14], 44 nM; in test [15], 49 nM.

Usually Kd stands for the free concentration of one partner at which half of the binding sites on the other are occupied at equilibrium, for simple one-to-one binding. In general, EC50 (read off the curve) refers to the concentration at which the effect is half-maximal. As usually defined, the EC50 is the concentration at which the effect is half-maximal.

(Values after patent US20240294644A1 (BLUEFIN BIOMEDICINE, published 2024).)
